{
  "source": "paper PMC3196492",
  "about": "“APOE Genotype-Function Relationship: Evidence of −491 A/T Promoter Polymorphism Modifying Transcription Control but Not Type 2 Diabetes Risk”",
  "binders": {"B1": {"name": "APOE promoter -491A probe (-521 to -461) (dsDNA)", "DNA 1": "GTTTCACCATGTTGGCCAGGCTGGTCTCAAACTCCTGACCTTAAGTGATTCGCCCACTGTG", "DNA 2": "CACAGTGGGCGAATCACTTAAGGTCAGGAGTTTGAGACCAGCCTGGCCAACATGGTGAAAC"}},
  "biological_target": "ATF4 (human (ORF from 293 cells), UniProt P18848 1-351)",
  "sequence (P18848 whole entry)": "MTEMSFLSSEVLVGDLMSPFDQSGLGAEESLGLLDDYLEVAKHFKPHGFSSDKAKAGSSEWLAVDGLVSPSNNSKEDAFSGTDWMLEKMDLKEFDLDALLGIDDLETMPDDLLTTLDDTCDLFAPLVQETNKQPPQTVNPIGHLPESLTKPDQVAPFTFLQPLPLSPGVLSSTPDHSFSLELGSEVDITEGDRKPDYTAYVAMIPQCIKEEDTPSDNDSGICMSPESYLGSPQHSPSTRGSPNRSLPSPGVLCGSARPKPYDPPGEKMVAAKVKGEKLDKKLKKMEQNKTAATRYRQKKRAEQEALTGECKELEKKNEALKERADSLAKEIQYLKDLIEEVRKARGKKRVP",
  "experiment": "EMSA; 1.2 uM ATF4, 3 nM probe; excess unlabeled probe competes completely; supershift with anti-ATF4 at 0.7 uM ATF4; 20 ul EMSA, 3 nM DIG-labeled probe, Roche kit instructions; buffer, salt, pH and temperature not stated",
  "conditions": "protein: recombinant; tags: His-tag; chain copies: 2; label: DIG; blunt",
  "data": [
    {"binder": "B1", "values": [
      {"measurement": "binding result", "value": "binds"}
    ]}
  ]
}
